From PMC7700444 come the findings set out here.

Substrate in this series: O=C(O)C(=O)O
The series is described as follows: purified protein. The following applies: 0.5 mM CoA, 5 mM ATP, 10 mM MgCl2, 2 mM DTT, 0.1 M Tris-HCl or NaPO4 pH 8.0, sodium oxalate as substrate.

B1: GsAAE3 (Glycine max) (protein)
chain: MKDTMETPTTLTTLLRHVAAKFPSRRAISVAAKFDLTHSRLHRLVESAAAQLVSAGVKPGDVVALTFPNTIEFVVMFLAVIRARATAAPLNSAYTAEEFEFYLSDSESKLLLTSPEGNKPAQAAASKLSIPHATASITKAENEEAELSLSLLNHPELNSVNSVESLVNDPDDVALFLHTSGTTSRPKGVPLTQYNLLSSVKNIDSVYRLTESDSTVIVLPLFHVHGLIAGLLSSLGAGAAVALPAAGRFSASAFWKDMIKYSATWYTAVPTIHQIILDRHSSNPEPVYPRLRFIRSCSASLAPVILGKLEEAFGAPVLEAYAMTEASHLMASNPLPQDGAHKSGSVGKPVGQEMGILDESGRVQEAGISGEVCIRGSNVTKGYKNNVAANTASFLFDWFHTGDIGYFDSDGYLHLVGRIKELINRGGEKISPIEVDAVLLSHPEIAQAVAFGVPDAKYGEEIYCAVIPREGSNVDEAEVLRFSKTNLASFKVPKKVFITDSLPKTATGKILRRLVAEHFVSQI
As for B1, the Km (as a rule, the substrate concentration at which the rate is half of its maximum) came out at 105.10 ± 12.30 µM.
